Results reported in US20070015242.

B1: matrix metalloproteinase-7 (matrilysin, MMP-7), active enzyme (enzyme, UniProt P09237 95-267, looked up, species assumed)
Matrilysin: YSLFPNSPKWTSKVVTYRIVSYTRDLPHITVDRLVSKALNMWGKEIPLHFRKVVWGTADIMIGFARGAHGDSYPFDGPGNTLAHAFAPGTGLGGDAHFDEDERWTDGSSLGINFLYAATHELGHSLGMGHSSDPNAVMYPTYGNGDPQNFKLSQDDIKGIQKLYGKRSNSRKK
modifications: APMA-activated

Biological target: recombinant NC1 fragment of type XVIII collagen (UniProt P39061)
Chain of UniProt P39061 (P39061 whole entry, looked up, the tested form may be a part): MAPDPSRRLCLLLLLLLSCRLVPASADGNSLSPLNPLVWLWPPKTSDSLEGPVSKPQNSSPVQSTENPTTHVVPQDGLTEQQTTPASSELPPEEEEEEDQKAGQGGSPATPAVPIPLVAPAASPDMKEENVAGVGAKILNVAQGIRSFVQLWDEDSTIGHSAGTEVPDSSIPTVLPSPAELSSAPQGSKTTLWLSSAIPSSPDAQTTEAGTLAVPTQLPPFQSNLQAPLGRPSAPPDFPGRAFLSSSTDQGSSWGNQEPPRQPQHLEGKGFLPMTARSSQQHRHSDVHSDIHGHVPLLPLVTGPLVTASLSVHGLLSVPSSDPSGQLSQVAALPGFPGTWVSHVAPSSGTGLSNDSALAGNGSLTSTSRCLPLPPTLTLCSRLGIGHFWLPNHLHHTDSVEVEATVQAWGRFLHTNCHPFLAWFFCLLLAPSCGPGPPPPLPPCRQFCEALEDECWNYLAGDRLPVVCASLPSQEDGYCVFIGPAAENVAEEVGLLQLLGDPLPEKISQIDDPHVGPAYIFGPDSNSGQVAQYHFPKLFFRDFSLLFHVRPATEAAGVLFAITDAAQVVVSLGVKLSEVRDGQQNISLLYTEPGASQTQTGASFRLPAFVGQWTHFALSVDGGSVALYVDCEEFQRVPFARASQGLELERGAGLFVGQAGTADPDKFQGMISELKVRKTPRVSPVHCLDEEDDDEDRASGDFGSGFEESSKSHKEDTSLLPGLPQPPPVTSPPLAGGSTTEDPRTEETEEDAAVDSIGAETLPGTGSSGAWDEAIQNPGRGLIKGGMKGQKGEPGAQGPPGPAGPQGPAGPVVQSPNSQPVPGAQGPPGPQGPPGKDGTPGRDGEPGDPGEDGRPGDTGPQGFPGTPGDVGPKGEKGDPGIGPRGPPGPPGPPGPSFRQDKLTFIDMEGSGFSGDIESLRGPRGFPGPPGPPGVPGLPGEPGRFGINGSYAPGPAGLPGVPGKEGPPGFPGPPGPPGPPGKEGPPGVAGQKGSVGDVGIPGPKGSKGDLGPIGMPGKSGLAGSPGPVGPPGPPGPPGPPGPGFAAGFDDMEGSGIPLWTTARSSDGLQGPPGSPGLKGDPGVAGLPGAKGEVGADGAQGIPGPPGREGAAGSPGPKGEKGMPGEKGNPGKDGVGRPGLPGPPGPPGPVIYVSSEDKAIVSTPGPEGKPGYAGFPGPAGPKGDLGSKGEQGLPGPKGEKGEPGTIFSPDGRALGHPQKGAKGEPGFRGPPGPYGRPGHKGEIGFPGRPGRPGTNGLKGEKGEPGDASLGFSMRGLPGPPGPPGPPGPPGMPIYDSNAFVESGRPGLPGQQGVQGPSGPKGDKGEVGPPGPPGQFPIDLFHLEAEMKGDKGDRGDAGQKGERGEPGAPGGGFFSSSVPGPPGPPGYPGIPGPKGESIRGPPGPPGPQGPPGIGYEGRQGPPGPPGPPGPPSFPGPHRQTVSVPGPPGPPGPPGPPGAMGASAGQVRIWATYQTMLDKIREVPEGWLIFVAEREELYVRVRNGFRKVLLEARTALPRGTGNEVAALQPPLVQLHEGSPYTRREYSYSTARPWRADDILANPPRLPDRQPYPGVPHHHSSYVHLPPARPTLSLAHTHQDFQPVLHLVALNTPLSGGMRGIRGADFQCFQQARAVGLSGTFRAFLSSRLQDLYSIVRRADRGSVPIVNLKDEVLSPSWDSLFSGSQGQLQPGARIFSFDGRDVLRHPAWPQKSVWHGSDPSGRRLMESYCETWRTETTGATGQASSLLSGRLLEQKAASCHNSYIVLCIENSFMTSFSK

Molecule | cleavage of recombinant NC1 fragment (Western blot of degradation products) | cleavage of NC1 fragments at pH 5.5, 6.5 and 7.5 (gel)
matrix metalloproteinase-9 (MMP-9), active enzyme | Treatment of the recombinant NC1 fragment of type XVIII collagen with MMP-2 or -9, similar to control, did not produce NC1 degradation products | 
matrix metalloproteinase-14 (MMP-14), active enzyme | MMP-7 and MMP-14 cleaved the recombinant NC1 fragment to produce neostatin-7, neostatin-14 and several endostatin-containing fragments | 
matrix metalloproteinase-2 (MMP-2), active enzyme | Treatment of the recombinant NC1 fragment of type XVIII collagen with MMP-2 or -9, similar to control, did not produce NC1 degradation products | 
B1 | MMP-7 and MMP-14 cleaved the recombinant NC1 fragment to produce neostatin-7, neostatin-14 and several endostatin-containing fragments | the cleavage of collagen XVIII/NC1 by MMP-7 is pH sensitive, and proceeds less efficiently at more acidic pH
